Entries after “also recorded” stand apart in the source; their conditions may differ. The star is where a group is joined. Biotin = O=C1N[C@H]2[C@H](CS[C@H]2CCCCC(=O)*)N1
How the values were obtained:
[1] = Circular dichroism (CD) of peptides; assay type: physicochemical; details: 20 mM Sodium Cacodylate; for Ellipticity ratio (222 nm/208 nm) / Ellipticity 208 nm / Ellipticity 222 nm: 1.25 mg/mL; for Ellipticity 208 nm / Ellipticity 222 nm: CD data given as [θ]M×10^−3; for wavelength Minimum of CD profile: 5.0 mg/mL
[2] = Transmission electron microscopy (TEM) of peptide nanostructures; assay type: physicochemical; details: for TEM characterization, Phosphate Buffered Saline (i): PBS pH 7.4, 0.5% w/v, 30 minutes sonication, 24 hrs at 37° C.
Description: The sample and stain were filter-dried in between steps. Samples were collected 24 hours at 37° C. after 30 minutes of sonication. All TEM was performed on a Philips FEI Technai Spirit G2 electron microscope. Peptides were incubated in both PBS and SC.

[3] = target: T1, collagen type III (Homo sapiens, UniProt P02461); assay: ECM specificity binding test, collagen type III coating; details: 5.0 mg/ml peptide, FIG. 4
T1 construct: purchased Sigma-Aldrich
T1 sequence (P02461 154-1221 limits assumed): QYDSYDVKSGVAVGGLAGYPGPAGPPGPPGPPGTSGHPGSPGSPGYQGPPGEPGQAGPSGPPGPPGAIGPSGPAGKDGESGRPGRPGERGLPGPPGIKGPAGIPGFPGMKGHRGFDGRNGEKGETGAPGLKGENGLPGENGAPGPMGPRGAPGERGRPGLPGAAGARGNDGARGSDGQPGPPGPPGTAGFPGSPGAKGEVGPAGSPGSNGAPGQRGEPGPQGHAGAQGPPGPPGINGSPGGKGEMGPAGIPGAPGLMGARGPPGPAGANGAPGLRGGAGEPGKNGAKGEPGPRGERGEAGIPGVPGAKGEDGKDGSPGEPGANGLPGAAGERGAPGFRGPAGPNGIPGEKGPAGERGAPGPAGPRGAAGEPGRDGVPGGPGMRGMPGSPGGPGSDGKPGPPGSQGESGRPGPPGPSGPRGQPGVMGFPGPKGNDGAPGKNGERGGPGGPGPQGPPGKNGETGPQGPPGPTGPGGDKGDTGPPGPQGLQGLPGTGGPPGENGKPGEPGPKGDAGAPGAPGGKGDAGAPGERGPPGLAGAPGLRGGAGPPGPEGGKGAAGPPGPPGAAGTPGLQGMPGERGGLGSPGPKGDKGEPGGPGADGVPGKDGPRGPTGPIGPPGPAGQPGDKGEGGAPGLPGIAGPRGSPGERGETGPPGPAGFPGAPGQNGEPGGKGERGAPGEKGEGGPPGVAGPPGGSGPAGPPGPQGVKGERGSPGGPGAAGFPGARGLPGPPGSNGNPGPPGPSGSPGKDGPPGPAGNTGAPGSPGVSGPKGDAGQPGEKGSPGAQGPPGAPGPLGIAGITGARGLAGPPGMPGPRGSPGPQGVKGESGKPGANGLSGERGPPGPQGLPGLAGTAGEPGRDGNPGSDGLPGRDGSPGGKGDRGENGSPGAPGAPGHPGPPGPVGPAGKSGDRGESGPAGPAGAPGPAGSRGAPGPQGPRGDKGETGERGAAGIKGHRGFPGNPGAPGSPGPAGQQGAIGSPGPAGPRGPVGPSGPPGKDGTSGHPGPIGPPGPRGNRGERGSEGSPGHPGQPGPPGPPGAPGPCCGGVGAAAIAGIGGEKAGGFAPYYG
Description: (§1) Peptides were incubated 24 hours at 37° C. on collagens I-IV, elastin, hyaluronic acid, and Geltrex. Coatings (10 pig/cm^2) were previously dried overnight in milli-Q water. Overall significance was assessed using analysis of variance, with Tukey's multiple comparison post-hoc analysis between ECM groups where n=4.
(§2) Biotinylated peptides were custom synthesized by ABI Scientific, Inc. (Sterling, VA). Uranyl acetate and TEM grids were from Ted Pella, Inc (Redding, CA). Unless specified otherwise, all water used in these experiments was Milli-Q grade. HA (˜1 MDa), collagen types I (rat), II (chicken), III (human), and IV (mouse), elastin (bovine), deuterium oxide (D2O), acetic acid-d4, sodium acetate-d3, 3-(Trimethylsilyl)propionic-2,2,3,3-d6 (DSS-D6) acid sodium salt, and 2,2,2-trifluoroethanol (TFE) and were obtained from Sigma-Aldrich (St. Louis, MO). Streptavidin (Alexa Fluor 488 conjugate) and Geltrex were obtained from Thermo Fisher Scientific Inc. (Waltham, MA). […]
(§3) Hyaluronic acid, collagens I, II, III, and IV, elastin, and Geltrex were coated onto 96-well black plates (medium binding affinity) at 10 μg/cm^2 and were dried in milli-Q water at room temperature. […] The plates were read with a fluorescence microplate reader for fluorescence intensity (Ex 490 nm, Em 525 nm). All data were normalized to the background fluorescence intensity of Streptavidin-488.

[4] = target: T2, collagen type I (Rattus norvegicus, UniProt P02454+P02466); assay: ECM specificity binding test, collagen type I coating; details: 5.0 mg/ml peptide, FIG. 4
T2 construct: purchased Sigma-Aldrich
Description: as §1, §2, §3

[5] = system: extracellular matrix (ECM) components: Collagen type I, II, III and IV, elastin, hyaluronic acid and Geltrex; assay: ECM specificity binding test, whole panel; details: 5.0 mg/ml peptide, FIG. 4
[6] = target: T3, elastin (Bos taurus, UniProt P04985); assay: ECM specificity binding test, elastin coating; set-up: species or system bovine; details: 5.0 mg/ml peptide, FIG. 4
T3 construct: purchased Sigma-Aldrich
T3 sequence (P04985 27-747): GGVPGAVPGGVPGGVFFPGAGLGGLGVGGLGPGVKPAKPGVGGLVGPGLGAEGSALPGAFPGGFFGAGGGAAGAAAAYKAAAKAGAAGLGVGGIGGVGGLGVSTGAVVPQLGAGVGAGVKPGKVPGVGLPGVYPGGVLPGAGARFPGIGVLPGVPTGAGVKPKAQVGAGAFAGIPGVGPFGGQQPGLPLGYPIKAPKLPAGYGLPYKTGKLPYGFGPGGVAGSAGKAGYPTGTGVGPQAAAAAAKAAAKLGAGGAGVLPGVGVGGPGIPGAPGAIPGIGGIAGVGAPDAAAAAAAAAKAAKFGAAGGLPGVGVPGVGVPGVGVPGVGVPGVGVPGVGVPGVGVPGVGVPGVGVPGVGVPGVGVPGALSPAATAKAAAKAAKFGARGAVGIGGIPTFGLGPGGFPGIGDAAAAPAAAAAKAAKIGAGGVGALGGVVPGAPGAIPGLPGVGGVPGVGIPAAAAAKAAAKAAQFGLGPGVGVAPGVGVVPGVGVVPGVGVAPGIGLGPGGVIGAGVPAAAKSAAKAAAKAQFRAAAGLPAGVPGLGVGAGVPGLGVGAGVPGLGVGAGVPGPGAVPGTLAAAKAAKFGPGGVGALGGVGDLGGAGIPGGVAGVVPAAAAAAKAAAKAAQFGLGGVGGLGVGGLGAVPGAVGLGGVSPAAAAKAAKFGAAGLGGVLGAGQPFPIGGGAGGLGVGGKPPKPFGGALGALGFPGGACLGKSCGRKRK
Description: as §1
Biotinylated peptides were custom synthesized by ABI Scientific, Inc. (Sterling, VA). Uranyl acetate and TEM grids were from Ted Pella, Inc (Redding, CA). Unless specified otherwise, all water used in these experiments was Milli-Q grade. HA (˜1 MDa), collagen types I (rat), II (chicken), III (human), and IV (mouse), elastin (bovine), deuterium oxide (D2O), acetic acid-d4, sodium acetate-d3, 3-(Trimethylsilyl)propionic-2,2,3,3-d6 (DSS-D6) acid sodium salt, and 2,2,2-trifluoroethanol (TFE) and were obtained from Sigma-Aldrich (St. Louis, MO). Streptavidin (Alexa Fluor 488 conjugate) and Geltrex were obtained from Thermo Fisher Scientific Inc. (Waltham, MA). Sodium hyaluronate (5 and 60 KDa) was purchased from Lifecore Biomedical LLC (Chaska, MN). In reference to terminology, N and C termini is used to describe the amino terminal (N) and the carboxyl terminal (C) of the peptide. The biotinylated peptides are used in every experiment.
(§4) Hyaluronic acid, collagens I, II, III, and IV, elastin, and Geltrex were coated onto 96-well black plates (medium binding affinity) at 10 μg/cm^2 and were dried in milli-Q water at room temperature. N-termini biotinylated peptides were added to coated plates at 0, 1, 2.5, 5 and 10 mg/ml overnight at 37° C. in phosphate buffered saline (PBS), pH 7.4, after which the plates were washed three times with PBS. Fluorescent streptavidin-488 (4 μg/mL) was added to each well and incubated at 37° C. temperature for 24 hours, then thoroughly washed with PBS. The plates were read with a fluorescence microplate reader for fluorescence intensity (Ex 490 nm, Em 525 nm). All data were normalized to the background fluorescence intensity of Streptavidin-488.

[7] = target: T4, collagen type II (Gallus gallus, UniProt P02460); assay: ECM specificity binding test, collagen type II coating; set-up: species or system chicken; details: 5.0 mg/ml peptide, FIG. 4
T4 construct: purchased Sigma-Aldrich
T4 sequence (P02460 whole entry): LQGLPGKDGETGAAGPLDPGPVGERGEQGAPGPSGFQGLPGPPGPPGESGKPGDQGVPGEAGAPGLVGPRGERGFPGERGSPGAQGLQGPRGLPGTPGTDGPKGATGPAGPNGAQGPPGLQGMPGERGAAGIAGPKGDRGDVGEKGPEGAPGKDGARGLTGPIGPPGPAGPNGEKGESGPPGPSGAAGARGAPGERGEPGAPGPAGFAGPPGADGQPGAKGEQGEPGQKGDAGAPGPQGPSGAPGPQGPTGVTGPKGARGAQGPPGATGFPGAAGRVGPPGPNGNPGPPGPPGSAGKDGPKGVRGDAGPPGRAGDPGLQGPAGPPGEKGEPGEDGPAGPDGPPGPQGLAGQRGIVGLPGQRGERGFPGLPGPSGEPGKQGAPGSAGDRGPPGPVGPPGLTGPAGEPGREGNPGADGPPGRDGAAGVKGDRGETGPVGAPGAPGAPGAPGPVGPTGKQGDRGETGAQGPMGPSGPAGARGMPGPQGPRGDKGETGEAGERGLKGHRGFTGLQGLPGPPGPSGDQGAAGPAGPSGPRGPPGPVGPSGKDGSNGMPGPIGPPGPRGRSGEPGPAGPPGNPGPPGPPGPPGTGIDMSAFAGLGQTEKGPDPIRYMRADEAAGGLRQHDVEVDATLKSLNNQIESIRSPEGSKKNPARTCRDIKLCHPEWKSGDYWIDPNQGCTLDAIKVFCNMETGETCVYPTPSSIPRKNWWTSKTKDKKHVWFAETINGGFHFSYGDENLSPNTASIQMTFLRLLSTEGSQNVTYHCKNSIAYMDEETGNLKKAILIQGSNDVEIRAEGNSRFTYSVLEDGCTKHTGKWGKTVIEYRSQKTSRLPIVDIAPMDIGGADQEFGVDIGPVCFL
Description: as §1, §2, §3

[8] = system: Geltrex; assay: ECM specificity binding test, Geltrex coating; details: 5.0 mg/ml peptide, FIG. 4
Description: as §1, §2, §3

[9] = Concentration-dependent peptide binding to hyaluronic acid coating (biotin-streptavidin fluorescence)
Outline: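 N-terminally biotinylated peptides at 0, 1, 2.5, 5 and 10 mg/ml were incubated overnight at 37 °C in PBS, pH 7.4, on dried hyaluronic acid coatings (10 μg/cm^2), then washed three times in PBS. Groups compared with scrambled control by ANOVA with Tukey post-hoc, n=4.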

[10] = target: T5, collagen type IV (Mus musculus, UniProt P02463+P08122); assay: ECM specificity binding test, collagen type IV coating; details: 5.0 mg/ml peptide, FIG. 4
T5 construct: purchased Sigma-Aldrich
T5 sequence (P02463 173-1669): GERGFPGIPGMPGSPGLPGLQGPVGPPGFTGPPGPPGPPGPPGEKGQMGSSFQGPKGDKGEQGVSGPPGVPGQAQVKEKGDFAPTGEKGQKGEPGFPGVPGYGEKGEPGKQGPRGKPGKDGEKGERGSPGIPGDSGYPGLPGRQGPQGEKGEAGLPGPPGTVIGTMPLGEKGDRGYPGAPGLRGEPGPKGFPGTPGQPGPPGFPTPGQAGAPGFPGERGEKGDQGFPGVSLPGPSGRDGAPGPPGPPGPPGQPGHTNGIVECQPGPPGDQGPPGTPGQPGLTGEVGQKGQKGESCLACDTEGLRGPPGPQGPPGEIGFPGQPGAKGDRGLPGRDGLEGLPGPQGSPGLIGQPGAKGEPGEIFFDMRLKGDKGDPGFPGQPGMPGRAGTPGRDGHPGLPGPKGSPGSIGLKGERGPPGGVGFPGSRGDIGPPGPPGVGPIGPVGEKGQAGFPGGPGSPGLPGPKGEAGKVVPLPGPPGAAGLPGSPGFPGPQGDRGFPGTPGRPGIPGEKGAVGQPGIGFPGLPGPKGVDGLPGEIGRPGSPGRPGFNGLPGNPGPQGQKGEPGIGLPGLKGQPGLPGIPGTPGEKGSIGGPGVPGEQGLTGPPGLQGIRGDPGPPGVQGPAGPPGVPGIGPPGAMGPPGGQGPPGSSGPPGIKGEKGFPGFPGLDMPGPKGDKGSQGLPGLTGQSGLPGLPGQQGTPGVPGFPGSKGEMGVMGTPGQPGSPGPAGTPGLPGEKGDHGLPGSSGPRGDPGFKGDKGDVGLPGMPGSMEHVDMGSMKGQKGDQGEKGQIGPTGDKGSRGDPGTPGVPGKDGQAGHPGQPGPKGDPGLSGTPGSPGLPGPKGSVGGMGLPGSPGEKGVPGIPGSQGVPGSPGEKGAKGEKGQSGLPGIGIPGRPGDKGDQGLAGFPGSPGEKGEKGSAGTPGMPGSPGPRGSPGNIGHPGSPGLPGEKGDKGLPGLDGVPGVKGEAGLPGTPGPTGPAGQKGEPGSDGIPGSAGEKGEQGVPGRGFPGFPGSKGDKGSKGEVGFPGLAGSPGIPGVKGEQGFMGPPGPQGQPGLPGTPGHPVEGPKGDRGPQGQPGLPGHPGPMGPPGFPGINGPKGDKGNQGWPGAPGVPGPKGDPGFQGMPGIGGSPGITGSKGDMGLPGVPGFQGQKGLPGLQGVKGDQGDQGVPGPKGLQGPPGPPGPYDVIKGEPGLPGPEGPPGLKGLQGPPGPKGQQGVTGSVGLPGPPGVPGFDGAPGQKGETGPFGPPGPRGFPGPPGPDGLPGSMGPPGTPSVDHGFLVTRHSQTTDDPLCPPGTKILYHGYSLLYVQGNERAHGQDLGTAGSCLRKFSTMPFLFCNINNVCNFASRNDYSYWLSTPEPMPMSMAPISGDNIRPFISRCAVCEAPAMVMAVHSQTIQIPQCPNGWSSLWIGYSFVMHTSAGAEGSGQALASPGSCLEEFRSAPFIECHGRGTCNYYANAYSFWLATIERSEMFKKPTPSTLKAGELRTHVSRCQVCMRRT
T5 sequence (P08122 29-1707 limits assumed): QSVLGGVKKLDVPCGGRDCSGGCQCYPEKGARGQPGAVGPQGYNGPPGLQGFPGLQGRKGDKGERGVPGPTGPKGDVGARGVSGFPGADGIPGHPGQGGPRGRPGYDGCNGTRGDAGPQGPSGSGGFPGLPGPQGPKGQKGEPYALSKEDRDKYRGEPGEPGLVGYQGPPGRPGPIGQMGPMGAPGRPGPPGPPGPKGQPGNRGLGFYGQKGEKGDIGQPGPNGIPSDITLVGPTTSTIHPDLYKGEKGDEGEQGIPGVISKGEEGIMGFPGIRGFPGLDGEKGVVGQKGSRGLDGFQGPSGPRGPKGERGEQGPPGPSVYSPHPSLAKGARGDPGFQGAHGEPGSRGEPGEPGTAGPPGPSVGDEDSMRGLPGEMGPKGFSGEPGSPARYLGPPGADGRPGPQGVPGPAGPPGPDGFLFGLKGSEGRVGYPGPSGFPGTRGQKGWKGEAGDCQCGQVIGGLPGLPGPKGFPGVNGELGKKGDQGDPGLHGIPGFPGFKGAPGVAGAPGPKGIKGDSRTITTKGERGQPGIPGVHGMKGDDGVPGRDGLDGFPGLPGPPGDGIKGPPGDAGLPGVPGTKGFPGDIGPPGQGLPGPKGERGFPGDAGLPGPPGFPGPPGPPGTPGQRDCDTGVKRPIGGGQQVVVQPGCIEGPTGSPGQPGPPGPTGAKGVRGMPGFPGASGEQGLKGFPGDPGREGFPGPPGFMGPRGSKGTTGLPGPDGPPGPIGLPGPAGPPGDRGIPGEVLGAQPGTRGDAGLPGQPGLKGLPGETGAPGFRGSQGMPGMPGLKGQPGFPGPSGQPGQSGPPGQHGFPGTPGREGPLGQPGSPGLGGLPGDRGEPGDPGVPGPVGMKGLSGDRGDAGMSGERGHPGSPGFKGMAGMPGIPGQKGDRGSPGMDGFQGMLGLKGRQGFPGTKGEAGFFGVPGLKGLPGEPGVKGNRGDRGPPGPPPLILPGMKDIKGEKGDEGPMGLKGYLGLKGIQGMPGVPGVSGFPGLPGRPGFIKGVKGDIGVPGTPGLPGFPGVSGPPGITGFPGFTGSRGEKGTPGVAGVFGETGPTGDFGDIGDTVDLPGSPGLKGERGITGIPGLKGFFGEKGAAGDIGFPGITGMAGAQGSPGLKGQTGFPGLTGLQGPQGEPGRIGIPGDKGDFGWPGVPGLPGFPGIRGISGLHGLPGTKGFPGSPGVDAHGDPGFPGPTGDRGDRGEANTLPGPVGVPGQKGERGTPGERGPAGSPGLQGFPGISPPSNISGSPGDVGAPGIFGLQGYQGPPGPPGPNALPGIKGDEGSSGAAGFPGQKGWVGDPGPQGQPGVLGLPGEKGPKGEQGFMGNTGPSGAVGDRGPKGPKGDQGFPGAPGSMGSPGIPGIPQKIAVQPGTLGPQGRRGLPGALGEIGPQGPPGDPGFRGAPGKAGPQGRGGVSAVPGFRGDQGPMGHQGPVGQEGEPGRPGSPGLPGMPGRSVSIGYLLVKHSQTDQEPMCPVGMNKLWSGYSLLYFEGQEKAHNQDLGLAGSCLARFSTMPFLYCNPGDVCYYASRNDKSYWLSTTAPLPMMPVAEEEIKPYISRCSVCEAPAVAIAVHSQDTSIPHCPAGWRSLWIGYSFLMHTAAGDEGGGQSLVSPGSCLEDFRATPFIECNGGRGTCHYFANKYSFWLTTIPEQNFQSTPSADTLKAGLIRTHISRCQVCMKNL
Description: as §1, §2, §3

[11] = ECM specificity binding test, hyaluronic acid coating; details: 5.0 mg/ml peptide, FIG. 4
Description: as §1, §4

[12] = target: T6, elastin (bovine) (bovine, UniProt P04985 27-747, limits assumed); assay: plate assay: biotinylated peptide (5.0 mg/ml) on dried ECM coating, streptavidin-488 fluorescence
T6 construct: Coated and dried on plates at 10 ug/cm2
T6 sequence (looked up): T3 sequence (P04985 27-747)
Description: (§5) Peptides were incubated 24 hours at 37° C. on collagens I-IV, elastin, hyaluronic acid, and Geltrex. Coatings (10 pig/cm²) were previously dried overnight in milli-Q water. Overall significance was assessed using analysis of variance, with Tukey's multiple comparison post-hoc analysis between ECM groups where n=4.
(§6) N-termini biotinylated peptides were added to coated plates at 0, 1, 2.5, 5 and 10 mg/ml overnight at 37° C. in phosphate buffered saline (PBS), pH 7.4, after which the plates were washed three times with PBS. Fluorescent streptavidin-488 (4 μg/mL) was added to each well and incubated at 37° C. temperature for 24 hours, then thoroughly washed with PBS. The plates were read with a fluorescence microplate reader for fluorescence intensity (Ex 490 nm, Em 525 nm). All data were normalized to the background fluorescence intensity of Streptavidin-488.

[13] = target: T7, collagen type III (human) (human, UniProt P02461 154-1221); assay: as above
T7 construct: III (human)'; Coated and dried on plates at 10 ug/cm2; also called collagen III
T7 sequence (looked up): T1 sequence (P02461 154-1221 limits assumed)
Description: as §5, §6

TKAKIKHSVKLKAKLRIKLVKRI [Peptide 10K, five B(X7)B domains in 23 residues]
Ellipticity ratio (222 nm/208 nm) [1]: 0.67 | Ellipticity 208 nm [1]: −113 | Ellipticity 222 nm [1]: −75.3 | wavelength Minimum of CD profile [1]: 224 nm | Ellipticity ratio (222 nm/208 nm) ([1]; 20% TFE): 0.83 | Ellipticity 208 nm ([1]; 20% TFE): −235 | Ellipticity 222 nm ([1]; 20% TFE): −194 | wavelength Minimum of CD profile ([1]; 20% TFE): 223 nm | TEM characterization, Phosphate Buffered Saline (i) [2]: No structure | binding to collagen type III [3]: predominantly | binding to collagen type I [4]: predominantly | binding to the ECMs (for 17x-3: the ECMs other than hyaluronic acid) [5]: moderate binding | binding to elastin [6]: predominantly | binding to collagen type II [7]: predominantly

TNLRNKYTFLARARANLAVRNKQNIKS [BHP4, variant of BHP3]
Ellipticity ratio (222 nm/208 nm) [1]: 0.81 | Ellipticity 208 nm [1]: −107 | Ellipticity 222 nm [1]: −86.6 | wavelength Minimum of CD profile [1]: 226 nm | wavelength Minimum of CD profile ([1]; 20% TFE): 225 nm | TEM characterization, Phosphate Buffered Saline (i) [2]: form fibers with many striations that form larger fibers and the larger fibers tend to form a mesh network | nanofiber formation in TEM, overall ([2]; both PBS and sodium cacodylate): consistent nanofibers; also recorded: predominantly form fibers with striations and furthermore form a mesh network | binding to Geltrex [8]: moderately | binding to hyaluronic acid with increasing concentrations of peptide (fluorescence intensity) ([9]; 0-10 mg/ml peptide, PBS pH 7.4, 37° C., HA coating 10 μg/cm^2, FIG. 3): increases dramatically | HA binding, overall assessment ([9]; summary and discussion statements): comparable binding; also recorded: HA specific and robust binders | binding to collagen type IV [10]: moderately | binding to hyaluronic acid in specificity testing [11]: binds | specificity of binding to ECMs [5]: lowest specificity | binding to elastin [6]: moderately | binding to collagen type II [7]: moderately

B1: Peptide 10K (peptide)
peptide: Biotin-TKAKIKHSVKLKAKLRIKLVKRI-OH
SMILES: CC[C@H](C)[C@H](NC(=O)[C@H](CCCNC(=N)N)NC(=O)[C@H](CCCCN)NC(=O)[C@@H](NC(=O)[C@H](CC(C)C)NC(=O)[C@H](CCCCN)NC(=O)[C@@H](NC(=O)[C@H](CCCNC(=N)N)NC(=O)[C@H](CC(C)C)NC(=O)[C@H](CCCCN)NC(=O)[C@H](C)NC(=O)[C@H](CCCCN)NC(=O)[C@H](CC(C)C)NC(=O)[C@H](CCCCN)NC(=O)[C@@H](NC(=O)[C@H](CO)NC(=O)[C@H](Cc1c[nH]cn1)NC(=O)[C@H](CCCCN)NC(=O)[C@@H](NC(=O)[C@H](CCCCN)NC(=O)[C@H](C)NC(=O)[C@H](CCCCN)NC(=O)[C@@H](NC(=O)CCCC[C@@H]1SC[C@@H]2NC(=O)N[C@@H]21)[C@@H](C)O)[C@@H](C)CC)C(C)C)[C@@H](C)CC)C(C)C)C(=O)O
notes: 23-residue designed peptide; biotinylated synthetic peptide
binding result [12]: binds | binding result [13]: binds

— patent US20250026792A1, “SELF-ASSEMBLING PEPTIDES WITH HYALURONIC ACID BINDING DOMAINS AND METHODS OF USE THEREOF” (Northwestern University, priority 2022, published 2025)
